{
  "source": "patent US20090148510A1",
  "about": "(Stanford University, published 2009)",
  "key": {"[1]": {"molecular_target": "T1, purified β2AR having an amino terminal Flag epitope tag and a carboxyl hexahistidine tag (UniProt P07550 1-413)", "T1 construct": "also called β2 adrenoreceptor; denatured β2AR (when treated with SDS); not shown: carboxyl hexahistidine tag (six His)", "assay": "isothermal titration calorimetry, detergent-solubilized β2AR, 25° C.", "description": "ITC measurements were performed at 25° C. using a VP-ITC calorimeter (Microcal, Inc.). […] Titrations were initiated with a 3 μl injection, followed by a series of 8 μl injections (37 β₂AR and 31 for β₂AR buffer blank), with 240 s between injections. After subtracting the blank titration, the measured heat released upon binding was plotted against the Fab:β₂AR molar ratio, and the data were fitted to a single-site binding model to obtain the association constant Ka, enthalpy change ΔH, and stoichiometry n using the Origin software package¹ (Microcal, Inc.)"}, "[2]": {"molecular_target": "T2, β2AR labeled at C265 with tetramethylrhodamine (UniProt P07550 1-413, tetramethylrhodamine on C265)", "T2 construct": "Detergent-solubilized (0.1% dodecylmaltoside) purified receptor; also called β2AR-TMR", "assay": "antibody dose-response on fluorescence of β2AR-TMR (labeled at C265), 4 nM receptor"}},
  "data": [
    {"binder": "Fab 5 (Fab fragment of antibody 5) (Fab, V domains shown, Made by papain cleavage of purified mouse antibody 5 and purified by ion exchange (Mono Q) chromatography; also called Fab5 antibody; Fab 5 fragments) VH: EVQLQQSGAELARPGASVKLSCKASGYIFTDYYINWVRQRTGQGFEWIGEIYPGSGNIDYNERFKDKATLTADKSSSTAYMQLSSLTSEDSAVYFCVRGFGYWGQGTTLTVSS VL: DIKMTQSPSSMYASLGERVTITCKASQDINSYLSWFQQKPGKSPKTLIYRANRLVDGVPSRFIGTGSGQDYSLTISSLDYEDMGIYYCLQYDEFPYTFGGGTKLEIKR", "values": [
      {"measurement": "Kd", "setting": "[1]", "result": 150, "unit": "nM"}
    ]},
    {"binder": "antibody 5 (intact mouse monoclonal antibody) (antibody, V domains shown, Mouse IgG from hybridoma; also called Mab5; Mab5 IgG) VH: EVQLQQSGAELARPGASVKLSCKASGYIFTDYYINWVRQRTGQGFEWIGEIYPGSGNIDYNERFKDKATLTADKSSSTAYMQLSSLTSEDSAVYFCVRGFGYWGQGTTLTVSS VL: DIKMTQSPSSMYASLGERVTITCKASQDINSYLSWFQQKPGKSPKTLIYRANRLVDGVPSRFIGTGSGQDYSLTISSLDYEDMGIYYCLQYDEFPYTFGGGTKLEIKR", "values": [
      {"measurement": "EC50", "setting": "[2]", "result": 23, "unit": "nM"}
    ]}
  ]
}
